These results are taken from patent US9062353B2, “Electrically conductive polymer electrodes with incorporated viruses” (THE REGENTS OF THE UNIVERSITY OF CALIFORNIA, priority 2010, dated 2015).

Common to all, as to conditions: phage-displayed peptide
The target of experiment [1] is T1, PSMA dimer (Homo sapiens, UniProt Q04609).
T1 construct: purchased Molecular Express, Inc
Description: phage-based ELISA, binding to PSMA dimer. Here is the method: (§1) A Nunc Maxisorp plate was coated with 10 μg/mL PSMA monomer or dimer protein for 1 h. The coating solution was removed, and the plate was blocked for 1 h with 0.2% BSA in PBS and washed 5 times with PT (300 μL/well). The wells were then incubated with phage displaying PSMA-binding peptides (100 μL/well) at the indicated concentrations for 1 h. After washing five times with PT, the plate was incubated with HRP-conjugated anti-M13 phage antibody (100 μL, 1:5000) in 0.1% PBT buffer for 30 min, and washed three times with PT, and twice with PBS. The plate was then developed using an o-phenylenediamine dihydrochloride/H2O2 solution (100 μL, 1 mg mL-1/0.02%) in citric acid buffer (50 mM citric acid, 50 mM Na2HPO4, pH 5.0), and the HRP activity was measured as absorbance at 450 nm.
The previously reported PSMA binding peptides, PSMA-1 (amino acid sequence, […] (SEQ ID NO:3)) and PSMA-2 (amino acid sequence, […] (SEQ ID NO:4)), were compared for affinity to the homodimeric and monomeric isoforms of PSMA. Details regarding PSMA-1 and PSMA-2 may be found in Yang, L. M. et al., Anal. Chem. 2006, 78, 3265-3270, which is incorporated by reference herein. Though diagnostically irrelevant, the monomeric isoform of PSMA provides a control for the binding specificity. […] Chosen for its specificity to the PSMA dimer, the PSMA-2 sequence provided the template for an affinity maturation library targeting the PSMA dimer.
Background: ELISA stands for enzyme-linked immunosorbent assay.

Experiment [2] concerns the target T2, PSMA monomer (Homo sapiens, UniProt Q04609).
T2 construct: purchased Molecular Express, Inc
Description: phage-based ELISA, binding to PSMA monomer. Here is the method: as §1
The previously reported PSMA binding peptides, PSMA-1 (amino acid sequence, […] (SEQ ID NO:3)) and PSMA-2 (amino acid sequence, […] (SEQ ID NO:4)), were compared for affinity to the homodimeric and monomeric isoforms of PSMA. Details regarding PSMA-1 and PSMA-2 may be found in Yang, L. M. et al., Anal. Chem. 2006, 78, 3265-3270, which is incorporated by reference herein. Though diagnostically irrelevant, the monomeric isoform of PSMA provides a control for the binding specificity. […]

Experiment [3] concerns the target TfR (Homo sapiens, UniProt P02786). The experiment in a line: binding specificity, transferrin receptor.
Experiment [4] deals with casein. The experiment in a line: binding specificity, casein.

T1 sequence (Q04609 whole entry): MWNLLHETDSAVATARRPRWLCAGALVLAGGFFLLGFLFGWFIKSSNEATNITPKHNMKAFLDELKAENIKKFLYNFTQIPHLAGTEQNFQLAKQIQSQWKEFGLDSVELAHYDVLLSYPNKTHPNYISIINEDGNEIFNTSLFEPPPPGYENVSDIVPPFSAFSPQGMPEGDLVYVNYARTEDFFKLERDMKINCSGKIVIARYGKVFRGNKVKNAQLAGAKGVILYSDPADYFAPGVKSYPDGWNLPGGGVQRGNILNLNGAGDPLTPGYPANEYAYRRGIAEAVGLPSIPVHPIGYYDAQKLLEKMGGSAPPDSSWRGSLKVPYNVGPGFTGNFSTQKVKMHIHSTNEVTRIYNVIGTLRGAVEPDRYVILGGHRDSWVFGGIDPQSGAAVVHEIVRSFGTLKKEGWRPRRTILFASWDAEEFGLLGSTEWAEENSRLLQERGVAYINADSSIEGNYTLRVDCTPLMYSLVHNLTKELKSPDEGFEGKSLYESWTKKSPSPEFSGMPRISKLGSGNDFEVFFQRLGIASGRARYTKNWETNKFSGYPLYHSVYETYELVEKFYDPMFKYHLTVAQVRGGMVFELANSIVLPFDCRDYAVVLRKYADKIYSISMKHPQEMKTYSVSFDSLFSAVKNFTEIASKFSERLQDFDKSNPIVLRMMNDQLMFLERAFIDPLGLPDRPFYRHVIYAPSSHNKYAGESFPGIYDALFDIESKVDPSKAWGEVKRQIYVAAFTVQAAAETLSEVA
T2 sequence (Q04609 whole entry): as above
TfR, sequence (P02786 whole entry, species assumed): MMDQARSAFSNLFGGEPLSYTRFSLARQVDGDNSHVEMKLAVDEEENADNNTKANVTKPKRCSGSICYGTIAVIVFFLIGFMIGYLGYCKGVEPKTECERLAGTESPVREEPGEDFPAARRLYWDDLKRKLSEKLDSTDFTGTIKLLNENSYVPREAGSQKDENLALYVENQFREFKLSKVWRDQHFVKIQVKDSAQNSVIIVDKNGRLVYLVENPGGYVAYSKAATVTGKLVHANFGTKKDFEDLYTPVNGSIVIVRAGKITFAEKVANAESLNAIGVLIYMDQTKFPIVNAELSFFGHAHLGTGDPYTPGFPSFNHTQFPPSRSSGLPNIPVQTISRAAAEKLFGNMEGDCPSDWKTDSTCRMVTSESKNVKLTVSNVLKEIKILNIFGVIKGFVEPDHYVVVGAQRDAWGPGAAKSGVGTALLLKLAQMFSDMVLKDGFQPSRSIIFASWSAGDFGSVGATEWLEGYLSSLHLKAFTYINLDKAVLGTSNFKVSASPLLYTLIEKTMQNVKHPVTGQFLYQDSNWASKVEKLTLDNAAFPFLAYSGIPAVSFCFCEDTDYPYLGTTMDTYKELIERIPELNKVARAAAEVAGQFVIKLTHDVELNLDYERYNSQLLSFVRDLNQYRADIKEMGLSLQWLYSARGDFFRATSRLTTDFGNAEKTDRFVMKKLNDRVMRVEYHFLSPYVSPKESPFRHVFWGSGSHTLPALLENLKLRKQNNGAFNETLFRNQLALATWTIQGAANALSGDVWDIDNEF

“CALCEFLG (displayed on M13 phage) [PSMA-1]”: in experiment [1], the “binding to PSMA dimer” value was “binds to both isoforms of PSMA”. Moreover, the “binding to PSMA monomer” value in experiment [2] was “binds to both isoforms of PSMA”.
On to “SECVEVFQNSCDW (displayed on M13 phage) [PSMA-3]”, for which the “binding to PSMA dimer” value in experiment [1] is given as “specific binding for the PSMA dimer”. Besides, the “binding to PSMA monomer” value in experiment [2] is reported as “not PSMA monomer”. Also, the “binding to TfR” value in experiment [3] is “not”. Besides, the binding to casein entry in experiment [4] is given as “not”.
As for “LDCVEVFQNSCDW (displayed on M13 phage) [PSMA-2]”, the “binding to PSMA dimer” value in experiment [1] is “binds with high affinity and specificity to the PSMA dimer”.
